Results from article PMC9742198 (Immunity, 2022).

Molecular target: SARS-CoV-2 receptor-binding domain (ancestral RBD) (SARS-CoV-2 (ancestral), UniProt P0DTC2)
Experiment: ELISA

B1: CAB-I12 (antibody, V domains shown)
VH: QVQLVQSGAEVKKPGSSVKVSCKASGDTFSRYSISWVRQAPGQGLEWMGRIIPMFATANYAQKFQGRVTITADKTTSIAYMELSSLRSEDTAVYYCARANYYYESGGYHFDNWGQGTLVTVSS
VL: EIVLTQSPGTLSLSPGERATLSCRASQSVGSSYLAWYQQKPGQAPRLLIYGASTRATGIPHRFSGSGSGTDFTLTISRLEPEDFAVYYCQQYHNSPRTFGQGTKV
  binding result: binds
